Experimental findings from the Human Domainome abundance scans (Beltran et al. 2025) are described below.

B1: Myocardin, residues 363 to 406; numbered along this chain, Q8IZQ8 (parent)
chain: KPGPLPPNLDDLKVSELRQQLRIRGLPVSGTKTALMDRLRPFQD

± gives the uncertainty stated by the source.

Variants of B1 are the subject of this data set. Kind of data set: abundance fitness (aPCA) (normalised: wild type 0, dead -1); higher = more abundant; growth selection in yeast, the domain comes from the species named. The conditions noted are these: Homo sapiens.
Take KPGPLPPNLDDLKVSELRQQLRIRGLPVSGTKTALMDVLRPFQD: the abundance fitness is -0.735 ± 0.082.

Regarding KPGPLPPNLDDLKVSELRQQLRIRGLPVSGTKTALMDDLRPFQD, the abundance fitness was -0.795 ± 0.19.

With KPGPLPPNLDDLKVSELRQQLRIRGLPVSGTKTALMDSLRPFQD, the abundance fitness is -0.479 ± 0.082.

On to KPGPLPPNLDDLKVSELRQQLRIRGLPVSGTKTALMDLLRPFQD, for which the abundance fitness was -0.671 ± 0.088.

As to KPGPLPPNLDDLKVSELRQQLRIRGLPVSGTKTALMDFLRPFQD, the abundance fitness is -0.907 ± 0.18.

With KPGPLPPNLDDLKVSELRQQLRIRGLPVSGTKTALRDRLRPFQD, the abundance fitness was -0.216 ± 0.066.

In the case of KPGPLPPNLDDLKVSELRQQLRIRGLPVSGTKTALDDRLRPFQD, the abundance fitness is -0.505 ± 0.19.

Turning to KPGPLPPNLDDLKVSELRQQLRIRGLPVSGTKTALLDRLRPFQD, the abundance fitness is -0.449 ± 0.098.

On to KPGPLPPNLDDLKVSELRQQLRIRGLPVSGTKTALGDRLRPFQD, for which the abundance fitness is -0.668 ± 0.074.

For the variant KPGPLPPNLDDLKVSELRQQLRIRGLPVSGTKTALKDRLRPFQD, the abundance fitness is -0.083 ± 0.2.

In the case of KPGPLPPNLDDLKVSELRQQLRIRGLPVSGTKTALIDRLRPFQD, the abundance fitness is -0.125 ± 0.16.

Regarding KPGPLPPNLDDLKVSELRQQLRIRGLPVSGTKTALVDRLRPFQD, the abundance fitness is -0.183 ± 0.075.

On to KPGPLPPNLDDLKVSELRQQLRIRGLPVSGTKTALQDRLRPFQD, for which the abundance fitness was -0.398 ± 0.16.

For KPGPLPPNLDDLKVSELRQQLRIRGLPVSGTKTALWDRLRPFQD, the abundance fitness is -0.935 ± 0.089.

Regarding KPGPLPPNLDDLKVSELRQQLRIRGLPVSGTKTALCDRLRPFQD, the abundance fitness is -0.454 ± 0.16.

In the case of KPGPLPPNLDDLKVSELRQQLRIRGLPVSGTKTALADRLRPFQD, the abundance fitness was -0.255 ± 0.066.

Consider KPGPLPPNLDDLKVSELRQQLRIRGLPVSGTKTALPDRLRPFQD, for which the abundance fitness is -0.419 ± 0.098.

For the variant KPGPLPPNLDDLKVSELRQQLRIRGLPVSGTKTALTDRLRPFQD, the abundance fitness was -0.27 ± 0.094.

KPGPLPPNLDDLKVSELRQQLRIRGLPVSGTKTALSDRLRPFQD: the abundance fitness is -0.64 ± 0.12.

For KPGPLPPNLDDLKVSELRQQLRIRGLPVSGTKTALEDRLRPFQD, the abundance fitness was -0.463 ± 0.12.

Consider KPGPLPPNLDDLKVSELRQQLRIRGLPVSGTKTALMARLRPFQD, for which the abundance fitness is -0.265 ± 0.062.

As for KPGPLPPNLDDLKVSELRQQLRIRGLPVSGTKTALMLRLRPFQD, the abundance fitness was -0.51 ± 0.079.

On to KPGPLPPNLDDLKVSELRQQLRIRGLPVSGTKTALMMRLRPFQD, for which the abundance fitness was -0.264 ± 0.44.

Turning to KPGPLPPNLDDLKVSELRQQLRIRGLPVSGTKTALMIRLRPFQD, the abundance fitness is -0.594 ± 0.16.

For KPGPLPPNLDDLKVSELRQQLRIRGLPVSGTKTALMFRLRPFQD, the abundance fitness was -1.21 ± 0.22.

On to KPGPLPPNLDDLKVSELRQQLRIRGLPVSGTKTALMQRLRPFQD, for which the abundance fitness is -0.165 ± 0.098.

Take KPGPLPPNLDDLKVSELRQQLRIRGLPVSGTKTALMGRLRPFQD: the abundance fitness is -0.404 ± 0.059.

On to KPGPLPPNLDDLKVSELRQQLRIRGLPVSGTKTALMERLRPFQD, for which the abundance fitness stood at 0.246 ± 0.076.

Regarding KPGPLPPNLDDLKVSELRQQLRIRGLPVSGTKTALMSRLRPFQD, the abundance fitness is -0.892 ± 0.11.

Turning to KPGPLPPNLDDLKVSELRQQLRIRGLPVSGTKTALMKRLRPFQD, the abundance fitness is -0.245 ± 0.11.

In the case of KPGPLPPNLDDLKVSELRQQLRIRGLPVSGTKTALMVRLRPFQD, the abundance fitness is -0.632 ± 0.081.

Regarding KPGPLPPNLDDLKVSELRQQLRIRGLPVSGTKTALMHRLRPFQD, the abundance fitness is -0.385 ± 0.15.

As for KPGPLPPNLDDLKVSELRQQLRIRGLPVSGTKTALMCRLRPFQD, the abundance fitness was -0.39 ± 0.14.

With KPGPLPPNLDDLKVSELRQQLRIRGLPVSGTKTALMPRLRPFQD, the abundance fitness was -0.966 ± 0.15.

As to KPGPLPPNLDDLKVSELRQQLRIRGLPVSGTKTALMWRLRPFQD, the abundance fitness was -0.829 ± 0.1.

Regarding KPGPLPPNLDDLKVSELRQQLRIRGLPVSGTKTALMTRLRPFQD, the abundance fitness was -0.452 ± 0.085.

As for KPGPLPPNLDDLKVSELRQQLRIRGLPVSGTKTALMYRLRPFQD, the abundance fitness was -0.271 ± 0.22.

On to KPGPLPPNLDDLKVSELRQQLRIRGLPVSGTKTALMNRLRPFQD, for which the abundance fitness was 0.227 ± 0.14.

For KPGPLPPNLDDLKVSELRQQLRIRGLPVSGTKTALMDRLRCFQD, the abundance fitness is -0.151 ± 0.085.

In the case of KPGPLPPNLDDLKVSELRQQLRIRGLPVSGTKTALMDRLRAFQD, the abundance fitness amounted to 0.037 ± 0.077.

Turning to KPGPLPPNLDDLKVSELRQQLRIRGLPVSGTKTALMDRLRDFQD, the abundance fitness was -0.325 ± 0.27.

Turning to KPGPLPPNLDDLKVSELRQQLRIRGLPVSGTKTALMDRLREFQD, the abundance fitness is 0.087 ± 0.088.

In the case of KPGPLPPNLDDLKVSELRQQLRIRGLPVSGTKTALMDRLTPFQD, the abundance fitness was -0.12 ± 0.099.

For KPGPLPPNLDDLKVSELRQQLRIRGLPVSGTKTALMDRLCPFQD, the abundance fitness is -0.499 ± 0.28.

Turning to KPGPLPPNLDDLKVSELRQQLRIRGLPVSGTKTALMDRLLPFQD, the abundance fitness is -0.284 ± 0.072.

As to KPGPLPPNLDDLKVSELRQQLRIRGLPVSGTKTALMDRLKPFQD, the abundance fitness amounted to 0.194 ± 0.1.

As for KPGPLPPNLDDLKVSELRQQLRIRGLPVSGTKTALMDRLGPFQD, the abundance fitness is -0.294 ± 0.076.

Regarding KPGPLPPNLDDLKVSELRQQLRIRGLPVSGTKTALMDRLVPFQD, the abundance fitness was -0.376 ± 0.085.

Regarding KPGPLPPNLDDLKVSELRQQLRIRGLPVSGTKTALMDRLPPFQD, the abundance fitness is -0.346 ± 0.1.

KPGPLPPNLDDLKVSELRQQLRIRGLPVSGTKTALMDRLQPFQD: the abundance fitness was -0.042 ± 0.2.

Consider KPGPLPPNLDDLKVSELRQQLRIRGLPVSGTKTALMDRLSPFQD, for which the abundance fitness was -0.107 ± 0.09.

On to KPGPLPPNLDDLKVSELRQQLRIRGLPVSGTKTALMDRLAPFQD, for which the abundance fitness turned out to be 0.092 ± 0.064.

In the case of KPGPLPPNLDDLKVSELRQQLRIRGLPVSGTKTALMDRLDPFQD, the abundance fitness was -0.614 ± 0.14.

On to KPGPLPPNLDDLKVSELRQQLRIRGLPVSGTKTALMDRLIPFQD, for which the abundance fitness is -0.205 ± 0.19.

Turning to KPGPLPPNLDDLKVSELRQQLRIRGLPVSGTKTALMDRLNPFQD, the abundance fitness was -0.698 ± 0.15.

As for KPGPLPPNLDDLKVSELRQQLRIRGLPVSGTKTALMDRLWPFQD, the abundance fitness is -0.731 ± 0.17.

As to KPGPLPPNLDDLKVSELRQQLRIRGLPVSGTKTALMDRLMPFQD, the abundance fitness is -0.25 ± 0.1.

With KPGPLPPNLDDLKVSELRQQLRIRGLPVSGTKTALMDRLEPFQD, the abundance fitness is -0.152 ± 0.087.
